This is an account of results in patent US20240116985A1 (published 2024).

First the molecules themselves.
B1: I-440 (peptide)
peptide: XDAXDEAAFNXHXQ
modifications: not fully specified; N-terminal Ac, C-terminal NH2; non-natural PL3(1), B5(4), S8(11), 1meH(12), BztA(13); staples PL3-B5 and B5-S8 (olefin metathesis)
notes: Stapled peptide composition
B2: I-1917 (peptide)
peptide: Ac-[αAllylPro]D[tBuAla][B5(4)]D[Phe(3-COOH)]KAFL[PyrS2(4)][3Thi][Bta]A-NH2
modifications: staple 1-4, 4-11; not fully specified; printed as Ac-PL3-Asp-Npg-B5-Asp-3COOHF-Lys-Ala-Phe-Leu-PyrS2-3Thi-BztA-Ala-NH2; reading uncertain
B3: I-1919 (peptide)
peptide: Ac-[αAllylPro]D[tBuAla][B5(4)]D[Phe(3-COOH)][Nle]AFL[PyrS2(4)][3Thi][Bta]A-NH2
modifications: staple 1-4, 4-11; not fully specified; printed as Ac-PL3-Asp-Npg-B5-Asp-3COOHF-nLeu-Ala-Phe-Leu-PyrS2-3Thi-BztA-Ala-NH2; reading uncertain
B4: I-1916 (peptide)
peptide: Ac-[αAllylPro]D[tBuAla][B5(4)]D[Phe(3-COOH)]HAFL[PyrS2(4)][3Thi][Bta]A-NH2
modifications: staple 1-4, 4-11; not fully specified; printed as Ac-PL3-Asp-Npg-B5-Asp-3COOHF-His-Ala-Phe-Leu-PyrS2-3Thi-BztA-Ala-NH2; reading uncertain

Starred links: 1 amine or outer side, 2 acyl side, 3 side chain; linkers in the order of their positions; H or OH if unused. Positions of bridges follow the written chain, without caps; N, C: chain ends. Non-standard residues stand in square brackets, D forms with d. Primed or numbered codes have the meaning given here. B5(26) = 2-amino-2-(pent-4-en-1-yl)hept-6-enoic acid (bis-pentenylglycine), stitching residue carrying two staples, C=CCCCC(CCCC=C)(N[*:1])C(=O)[*:2]; PyrS2″ = (S)-3-amino-1-((pent-4-en-1-yloxy)carbonyl)pyrrolidine-3-carboxylic acid (stapling residue), C=CCCCOC(=O)N1CC[C@@](N[*:1])(C(=O)[*:2])C1; (TfePpz)GlnR = (S)-2-amino-5-oxo-5-(4-(2,2,2-trifluoroethyl)piperazin-1-yl)pentanoic acid, O=C(CC[C@H](N[*:1])C(=O)[*:2])N1CCN(CC(F)(F)F)CC1; B5(23) = 2-amino-2-(pent-4-en-1-yl)hept-6-enoic acid (2,2-bis(4-pentenyl)glycine), stitching residue, C=CCCCC(CCCC=C)(N[*:1])C(=O)[*:2]; B5(24) = 2-amino-2-(pent-4-en-1-yl)hept-6-enoic acid, 2,2-bis(4-pentenyl)glycine (stitching residue), C=CCCCC(CCCC=C)(N[*:1])C(=O)[*:2]; B5(4) = 2,2-bis(4-pentenyl)glycine = 2-amino-2-(pent-4-en-1-yl)hept-6-enoic acid (stitching residue), C=CCCCC(CCCC=C)(N[*:1])C(=O)[*:2]; B5(21) = 2-amino-2-(pent-4-en-1-yl)hept-6-enoic acid, bis(4-pentenyl)glycine (stitching residue), C=CCCCC(CCCC=C)(N[*:1])C(=O)[*:2]; TfeGA = (S)-2-amino-3-((carboxymethyl)(2,2,2-trifluoroethyl)amino)propanoic acid, O=C([C@H](CN(CC(=O)[*:3])CC(F)(F)F)N[*:1])[*:2]; B5(19) = 2-amino-2-(pent-4-en-1-yl)hept-6-enoic acid (bis(4-pentenyl)glycine), C=CCCCC(CCCC=C)(N[*:1])C(=O)[*:2]; S(OMe) = O-methyl-L-serine, COC[C@H](N[*:1])C(=O)[*:2]; Phe(3-CONH2) = NC(=O)c1cccc(C[C@H](N)C(=O)O)c1; Phe(3-COOH) = N[C@@H](Cc1cccc(C(=O)O)c1)C(=O)O; Phe(2-Br) = N[C@@H](Cc1ccccc1Br)C(=O)O; Phe(2-Cl) = N[C@@H](Cc1ccccc1Cl)C(=O)O; His(τ-Me) = Cn1cnc(C[C@H](N)C(=O)O)c1; Phe(2-F) = N[C@@H](Cc1ccccc1F)C(=O)O; Bta = N[C@@H](Cc1csc2ccccc12)C(=O)O; His(π-Me) = Cn1cncc1C[C@H](N)C(=O)O; Lys(iPr) = CC(C)NCCCC[C@H](N)C(=O)O; αAllylPro = C=CC[C@@]1(C(=O)O)CCCN1; tBuAla = CC(C)(C)C[C@H](N)C(=O)O; 3Thi = N[C@@H](Cc1ccsc1)C(=O)O; Cha = N[C@@H](CC1CCCCC1)C(=O)O; S8 = C=CCCCCCC[C@](C)(N)C(=O)O; PyrS2(4) = not defined here; hSer = N[C@@H](CCO)C(=O)O; Nle = CCCC[C@H](N)C(=O)O

One assay has as its target T1, full-length beta-Catenin (Uniprot ID P35222) (Homo sapiens (Human), UniProt P35222 1-781).
T1 construct: The assay text says 'full-length'; also called bCat; B-Catenin
T1 sequence: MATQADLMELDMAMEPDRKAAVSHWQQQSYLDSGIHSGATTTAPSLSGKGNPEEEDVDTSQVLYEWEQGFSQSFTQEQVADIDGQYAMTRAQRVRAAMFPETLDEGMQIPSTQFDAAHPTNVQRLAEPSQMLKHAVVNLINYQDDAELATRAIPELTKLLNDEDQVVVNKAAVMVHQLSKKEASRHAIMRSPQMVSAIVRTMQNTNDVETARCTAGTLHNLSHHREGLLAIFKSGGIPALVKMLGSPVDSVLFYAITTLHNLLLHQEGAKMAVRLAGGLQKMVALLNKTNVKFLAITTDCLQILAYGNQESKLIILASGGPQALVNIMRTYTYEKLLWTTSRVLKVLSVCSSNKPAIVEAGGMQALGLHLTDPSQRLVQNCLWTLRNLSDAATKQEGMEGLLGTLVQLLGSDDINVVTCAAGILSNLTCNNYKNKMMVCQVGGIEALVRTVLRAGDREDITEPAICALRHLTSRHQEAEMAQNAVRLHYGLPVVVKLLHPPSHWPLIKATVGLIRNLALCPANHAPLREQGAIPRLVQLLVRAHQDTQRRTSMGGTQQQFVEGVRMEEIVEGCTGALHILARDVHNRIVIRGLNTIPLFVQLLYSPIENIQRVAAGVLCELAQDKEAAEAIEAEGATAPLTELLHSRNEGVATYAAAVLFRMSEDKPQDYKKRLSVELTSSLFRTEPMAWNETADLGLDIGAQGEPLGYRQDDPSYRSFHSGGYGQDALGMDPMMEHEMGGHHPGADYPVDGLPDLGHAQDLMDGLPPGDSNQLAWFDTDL
The assay can be described thus: fluorescence polarization competition; peptide titrated against 10 nM full-length beta-catenin + 10 nM 5FAM-TCF4(10-53) probe. As to the method:
The plate was incubated protected from light for 60 minutes at 20° C. prior to read. Reads were performed on a CLARIOstar plate reader (BMG Labtech) in duplicate, and data were fitted to a 1:1 binding model with hill slope using an in-house script. All provided concentrations are final concentrations.
Consider Ac-[αAllylPro]DA[B5(24)]DEAAFN[S8][Phe(2-Br)][Bta]Q-NH2 (staple 1-4, 4-11, Stapled peptide composition) [I-436], for which the IC50 was 0.056 µM. As for Ac-[αAllylPro]DA[B5(24)]DEAAFN[S8][Phe(2-Cl)][Bta]Q-NH2 (staple 1-4, 4-11, Stapled peptide composition) [I-435], the IC50 is 0.07 µM.

Regarding Ac-[αAllylPro]DA[B5(24)]DEAAFN[S8][Phe(2-F)][Bta]Q-NH2 (staple 1-4, 4-11, Stapled peptide composition) [I-434], the IC50 amounted to 0.0675 µM.

Regarding Ac-[αAllylPro]DA[B5(23)]DEAAFT[S8]F[Bta]H-NH2 (staple 1-4, 4-11, Stapled peptide composition) [I-420], the IC50 is 0.128 µM. On to B1, for which the IC50 was 5 µM.

Take Ac-[αAllylPro]DA[B5(26)]DEAAFN[S8][His(π-Me)][Bta]Q-NH2 (staple 1-4, 4-11, Stapled peptide composition) [I-438]: the IC50 is 5 µM.

Consider Ac-[αAllylPro]DA[B5(21)]DEAAFN[S8][His(τ-Me)][Bta]Q-NH2 (staple 1-4, 4-11, Stapled peptide composition) [I-439], for which the IC50 was 5 µM. Same read-out and setting: under Ac-[αAllylPro]DA[B5(24)]DEAAF[S(OMe)][S8]F[Bta]Q-NH2 (staple 1-4, 4-11, Stapled peptide composition) [I-433] stands 0.136 µM; under Ac-[αAllylPro]DA[B5(23)]DEAAFT[S8]F[Bta]Q-NH2 (staple 1-4, 4-11, Stapled peptide composition) [I-423], 0.105 µM.

The next assay has as its target T2, B-cat-Halo (beta-catenin HaloTag construct transfected into HEK293 cells) (UniProt P35222 1-781).
T2 sequence (looked up): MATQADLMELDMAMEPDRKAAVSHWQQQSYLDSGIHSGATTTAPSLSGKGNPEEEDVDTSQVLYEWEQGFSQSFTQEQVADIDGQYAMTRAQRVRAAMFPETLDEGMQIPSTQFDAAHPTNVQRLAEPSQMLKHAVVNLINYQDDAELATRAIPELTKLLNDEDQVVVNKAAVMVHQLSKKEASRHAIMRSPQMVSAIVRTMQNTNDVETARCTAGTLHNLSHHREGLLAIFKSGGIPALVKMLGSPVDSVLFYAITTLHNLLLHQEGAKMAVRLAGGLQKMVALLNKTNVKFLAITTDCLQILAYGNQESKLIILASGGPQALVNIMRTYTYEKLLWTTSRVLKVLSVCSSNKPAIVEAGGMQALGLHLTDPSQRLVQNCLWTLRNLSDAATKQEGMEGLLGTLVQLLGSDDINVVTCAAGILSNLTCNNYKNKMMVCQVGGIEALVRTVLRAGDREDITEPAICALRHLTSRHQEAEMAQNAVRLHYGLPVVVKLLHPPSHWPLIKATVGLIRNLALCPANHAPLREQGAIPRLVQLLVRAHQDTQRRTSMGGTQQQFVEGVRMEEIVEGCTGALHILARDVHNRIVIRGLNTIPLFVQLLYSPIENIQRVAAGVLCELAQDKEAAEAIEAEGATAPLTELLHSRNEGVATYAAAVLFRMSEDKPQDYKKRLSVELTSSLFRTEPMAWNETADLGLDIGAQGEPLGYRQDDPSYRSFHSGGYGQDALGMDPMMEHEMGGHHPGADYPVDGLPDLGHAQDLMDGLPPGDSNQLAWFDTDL
In words: cell-based or functional assay.
As to B2, the “NanoBRET Abs IC50” value turned out to be 37.7 µM.

Take Ac-[αAllylPro]N[Cha][B5(19)]DQ[Lys(iPr)]AFN[PyrS2″][Phe(3-CONH2)][Bta][hSer]-NH2 (staple 1-4, 4-11) [I-1929]: the “NanoBRET Abs IC50” value was over 20 µM. For the molecule B3, the “NanoBRET Abs IC50” value was 4.7 µM. As to B4, the “NanoBRET Abs IC50” value turned out to be 9.2 µM.

In the case of Ac-[αAllylPro]D[tBuAla][B5(19)]D[TfeGA]AAF[(TfePpz)GlnR][PyrS2″][3Thi][Bta]Q-NH2 (staple 1-4, 4-11) [I-1935], the “NanoBRET Abs IC50” value was 7.1 µM.
